Measurements reported in patent publication US20190256582A1.
Where two headings read alike, the source gives them in different places.

Experiments:
[1] = target: T1, panel of four distinct ZIKV strains (H/PF/2013; MR766, MRS-OPY and PV10552); assay: cell-based or functional assay
[2] = target: T1, panel of four distinct ZIKV strains …; assay: cell-based or functional assay; remark: listed apart in the source

B1: ZKA190 (antibody, V domains shown)
VH: QVQLVESGGGVVQPGRSLRLSCAASGFTFSKYGMHWVRQAPGKGLEWVAVISYEGSNKYYADSVKGRFTISRDNSKNTLYLQMNSLRAEDTAVYYCAKSGTQYYDTTGYEYRGLEYFGYWGQGTLVTVSS
VL: EIVLTQSPGTLSLSPGERATLSCRASQSVSSSYLAWYQQKRGQAPRLLIYDASSRATGIPDRFSGSGSGTDFTLTISRLEPEDFAVYYCQQYGRSRWTFGQGTKVEIK
ZIKV neutralization IC50 (four strains, Vero cells, flow cytometry) [1]: 0.6 to 8 ng/mL
ZIKV neutralization IC50 (four strains, Vero cells, flow cytometry) [2]: 0.004 to 0.05 nM
